Measurements from patent US20260184794A1, “ANTIBODIES AGAINST INTEGRIN ALPHA 11 BETA 1 AND USES THEREOF” (Momenta Pharmaceuticals, Inc., priority 2022, published 2026).
Residue numbers refer to the chain shown, from its start.

B1: Antibody 58: 1994-01-C7 variant; VH SEQ ID NO: 31, VL SEQ ID NO: 37 (antibody, V domains shown)
VH: QVQLVQSGAEVKKPGASVKVSCKASGYTFTSYGISWVRQAPGQGLEWMGWISAYNANVNYAQKLQGRVTMTTDTSTSTAYMELRSLRSDDTAAYYCARVTGITGTTIGPWGQGTMVTVSS
VL: DIQMTQSPSSLSASVGDRVTITCRASQSISSYLNWYQQKPGKAPKLLIYDASSLESGVPSRFSGSGSGTEFTLTISSLQPDDFAVYYCQQYNNWPQTFGQGTKVEIK
B2: Antibody 60: 1994-01-C7 variant; VH SEQ ID NO: 33, VL SEQ ID NO: 37 (antibody, V domains shown)
VH: B1 VH with A56S, V58T
VL: B1 VL
B3: Antibody 54: 1994-01-C7 variant; VH SEQ ID NO: 30, VL SEQ ID NO: 37 (antibody, V domains shown)
VH: B1 VH with V58T
VL: B1 VL
B4: A11BB133: 79E3E3 variant; VH SEQ ID NO: 4, VL SEQ ID NO: 21 (antibody, V domains shown)
VH: QIQLVQSGSELKKPGASVKVSCKASGYTFTDYAMNWVRQAPGQGLEWMGWINTQTGKPTYAQGFTGRFVFSLDTSVSTAYLQISSLKAEDTAVYYCTRLGTGNTKGFAYWGQGTLVTVSS
VL: DIQITQSPSSLSASVGDRVTITCKSSQSLLYSENNQDYLAWYQQKPGKVPKLLIYGASNRHTGVPSRFSGSGSGTDFTLTISSLQPEDVATYYCEQTYRYPFTFGQGTKLEIK
B5: A11BB134: 79E3E3 variant; VH SEQ ID NO: 10, VL SEQ ID NO: 22 (antibody, V domains shown)
VH: B4 VH with V20I, R38K, Y95F
VL: B4 VL with I4M
B6: A11BB143: 79E3E3 variant; VH SEQ ID NO: 15, VL SEQ ID NO: 22 (antibody, V domains shown)
VH: QVQLVQSGAEVKKPGSSVKVSCKASGYTFTDYAMNWVRQAPGQGLEWMGWINTQTGKPTYAQKFQGRVTFTLDESTSTAYMELSSLRSEDTAVYYCTRLGTGNTKGFAYWGQGTLVTVSS
VL: B4 VL with I4M
B7: A11BB131: 79E3E3 variant; VH SEQ ID NO: 11, VL SEQ ID NO: 21 (antibody, V domains shown)
VH: B4 VH with V20I, S77R, Y95F
VL: B4 VL
B8: A11BB136: 79E3E3 variant; VH SEQ ID NO: 14, VL SEQ ID NO: 22 (antibody, V domains shown)
VH: B4 VH with Y95F
VL: B4 VL with I4M
B9: A11BB141: 79E3E3 variant; VH SEQ ID NO: 7, VL SEQ ID NO: 19 (antibody, V domains shown)
VH: B6 VH with V2I, A79T
VL: B4 VL
B10: A11BB139: 79E3E3 variant; VH SEQ ID NO: 5, VL SEQ ID NO: 22 (antibody, V domains shown)
VH: B6 VH with V2I
VL: B4 VL with I4M
B11: A11BB142: 79E3E3 variant; VH SEQ ID NO: 6, VL SEQ ID NO: 22 (antibody, V domains shown)
VH: B6 VH with V2I, A79T, T97A
VL: B4 VL with I4M
B12: A11BB140: 79E3E3 variant; VH SEQ ID NO: 7, VL SEQ ID NO: 22 (antibody, V domains shown)
VH: B6 VH with V2I, A79T
VL: B4 VL with I4M
B13: A11BB138: 79E3E3 variant; VH SEQ ID NO: 12, VL SEQ ID NO: 21 (antibody, V domains shown)
VH: B4 VH with V20I, Y95F
VL: B4 VL
B14: A11BB112: 16E10 variant; VH SEQ ID NO: 49, VL SEQ ID NO: 61 (antibody, V domains shown)
VH: EVQLLESGGGLVQPGGSLRLSCAASGFSFSSSYYMCWVRQAPGKGLEWVSCIGTTRGSTYYADSVKGRFTISRDNSKNTLYLQMNSLRAEDTAVYYCARDATGYRINTIGLYFNLWGQGTLVTVSS
VL: DIVMTQSPDSLAVSLGERATINCQASQTIYSYLSWYQQKPGQPPKLLIYEASKLASGVPDRFSGSGSGTDYTLTISSLQAEDVAVYYCQSYHGTASTEYNTFGGGTKVEIK
B15: A11BB123: 16E10 variant; VH SEQ ID NO: 47, VL SEQ ID NO: 61 (antibody, V domains shown)
VH: B14 VH with C36A, C51A, N75S
VL: B14 VL
B16: A11BB125: 16E10 variant; VH SEQ ID NO: 55, VL SEQ ID NO: 61 (antibody, V domains shown)
VH: B14 VH with C36S, C51A, N75S
VL: B14 VL
B17: A11BB129: 16E10 variant; VH SEQ ID NO: 54, VL SEQ ID NO: 61 (antibody, V domains shown)
VH: B14 VH with C36S, C51A, L80V
VL: B14 VL
B18: A11BB121: 16E10 variant; VH SEQ ID NO: 53, VL SEQ ID NO: 61 (antibody, V domains shown)
VH: B14 VH with C36S, C51A
VL: B14 VL
B19: A11BB114: 16E10 variant; VH SEQ ID NO: 50, VL SEQ ID NO: 61 (antibody, V domains shown)
VH: B14 VH with L80V
VL: B14 VL
B20: A11BB119: 16E10 variant; VH SEQ ID NO: 45, VL SEQ ID NO: 61 (antibody, V domains shown)
VH: B14 VH with C36A, C51A
VL: B14 VL
B21: A11BB117: 16E10 variant; VH SEQ ID NO: 56, VL SEQ ID NO: 61 (antibody, V domains shown)
VH: B14 VH with C36S, C51A, N75S, L80V, Y96F
VL: B14 VL
B22: A11BB127: 16E10 variant; VH SEQ ID NO: 46, VL SEQ ID NO: 61 (antibody, V domains shown)
VH: B14 VH with C36A, C51A, L80V
VL: B14 VL

target: T1, CHO-hu α11 (Homo sapiens, UniProt Q9UKX5); test: FACS antibody binding to CHO-K1 cells expressing human α11; conditions: Table 11, 1994-01-C7 variants, FIG. 4A
T1 construct: expressed in transfected cells; host or cells: CHO-K1
Procedure: 200,000 cells (wild-type CHO-K1 cells or CHO-K1 cells expressing human α11) were incubated with each antibody at desired concentrations in FACS buffer for 30 min at 4° C. Then, the cells were washed with FACS buffer and incubated with secondary antibody at 1:100 dilution for 30 minutes at 4° C. Cells were then washed and fixed with 1% PF A in PBS for 20 minutes at room temperature; washed again and read on a cytometer in FACS buffer.

T1 sequence (Q9UKX5 23-1188): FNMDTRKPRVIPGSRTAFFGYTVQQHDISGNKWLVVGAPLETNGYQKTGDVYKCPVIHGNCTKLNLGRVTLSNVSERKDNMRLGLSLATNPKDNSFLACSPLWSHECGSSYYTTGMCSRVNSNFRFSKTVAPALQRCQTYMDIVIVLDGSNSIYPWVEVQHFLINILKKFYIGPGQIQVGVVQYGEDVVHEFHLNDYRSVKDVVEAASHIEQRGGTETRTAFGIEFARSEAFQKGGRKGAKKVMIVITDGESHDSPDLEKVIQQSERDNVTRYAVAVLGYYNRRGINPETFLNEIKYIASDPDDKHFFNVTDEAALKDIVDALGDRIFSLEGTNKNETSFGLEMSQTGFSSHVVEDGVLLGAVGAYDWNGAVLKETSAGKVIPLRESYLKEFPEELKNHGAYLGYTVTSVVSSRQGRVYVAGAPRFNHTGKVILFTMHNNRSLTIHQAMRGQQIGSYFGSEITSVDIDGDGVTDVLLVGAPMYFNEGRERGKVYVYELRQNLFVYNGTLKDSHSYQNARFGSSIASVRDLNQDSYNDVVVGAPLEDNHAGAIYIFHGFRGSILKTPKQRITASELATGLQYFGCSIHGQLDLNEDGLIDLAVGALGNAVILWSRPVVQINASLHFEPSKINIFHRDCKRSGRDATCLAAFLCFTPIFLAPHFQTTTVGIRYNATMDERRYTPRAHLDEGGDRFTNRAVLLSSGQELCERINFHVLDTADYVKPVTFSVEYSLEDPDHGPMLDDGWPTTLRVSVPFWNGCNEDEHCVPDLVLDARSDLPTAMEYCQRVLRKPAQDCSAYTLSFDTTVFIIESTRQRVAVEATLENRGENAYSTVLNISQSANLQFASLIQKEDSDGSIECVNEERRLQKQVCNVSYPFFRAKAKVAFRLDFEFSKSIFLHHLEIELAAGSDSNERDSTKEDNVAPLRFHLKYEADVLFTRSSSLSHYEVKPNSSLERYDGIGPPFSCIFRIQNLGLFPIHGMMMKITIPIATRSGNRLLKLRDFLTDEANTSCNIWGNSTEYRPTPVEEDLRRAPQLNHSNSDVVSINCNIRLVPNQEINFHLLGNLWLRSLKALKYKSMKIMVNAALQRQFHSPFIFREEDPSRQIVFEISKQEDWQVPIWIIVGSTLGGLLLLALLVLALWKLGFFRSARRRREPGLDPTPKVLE
T1 sequence (P05556 21-798 partner): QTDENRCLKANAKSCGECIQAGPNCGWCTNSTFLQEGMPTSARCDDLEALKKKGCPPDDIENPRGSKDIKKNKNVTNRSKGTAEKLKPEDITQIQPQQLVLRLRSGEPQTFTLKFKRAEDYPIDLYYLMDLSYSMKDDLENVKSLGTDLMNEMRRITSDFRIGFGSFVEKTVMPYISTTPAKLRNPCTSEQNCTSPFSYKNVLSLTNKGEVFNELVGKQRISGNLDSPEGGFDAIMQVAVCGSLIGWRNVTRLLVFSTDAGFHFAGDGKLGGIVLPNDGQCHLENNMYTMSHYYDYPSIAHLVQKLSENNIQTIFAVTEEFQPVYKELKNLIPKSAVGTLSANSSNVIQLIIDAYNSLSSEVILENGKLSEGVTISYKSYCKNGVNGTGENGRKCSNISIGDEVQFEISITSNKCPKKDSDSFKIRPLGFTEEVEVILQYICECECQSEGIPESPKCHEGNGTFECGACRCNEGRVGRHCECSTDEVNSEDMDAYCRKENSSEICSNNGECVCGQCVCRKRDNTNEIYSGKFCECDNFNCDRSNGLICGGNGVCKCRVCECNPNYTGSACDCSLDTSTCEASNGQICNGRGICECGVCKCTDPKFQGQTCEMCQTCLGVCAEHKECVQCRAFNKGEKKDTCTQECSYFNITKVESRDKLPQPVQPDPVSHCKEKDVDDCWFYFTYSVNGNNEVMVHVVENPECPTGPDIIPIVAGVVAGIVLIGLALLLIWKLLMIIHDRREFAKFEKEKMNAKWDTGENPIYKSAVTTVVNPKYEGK

| EC50 [nM] | Molecule |
| --- | --- |
| 5.94 | B1 |
| 5.3 | B2 |
| 5.5 | B3 |

same assay, conditions: Table 13, 79E3E3 variants

| EC50 [nM] | Molecule |
| --- | --- |
| 5.13 | B4 |
| 3.49 | B5 |
| 2.12 | B6 |
| 2.49 | B7 |
| 1.92 | B8 |
| 4.6 | B9 |
| 1.98 | B10 |
| 2.07 | B11 |
| 2.5 | B12 |
| 4.63 | B13 |

target: Pulmonary Myofibroblast; test: FACS antibody binding to pulmonary myofibroblasts (HPF/MF); set-up: species or system human; conditions: Table 11, 1994-01-C7 variants, FIG. 4B
Procedure: Human Pulmonary Fibroblasts (ScienCell) were cultured in complete Fibroblast Growth Medium (ScienCell) until 80% confluent in T-150 flasks. Cells were washed and harvested using Accutase. Cells were seeded into T-150 flasks at 7,500 cells/cm^2 in complete FGF and cultured for 72 hours. Cells were then washed and starved in serum reduced medium for 24 hours. After starvation, cells were treated with TGFβ1 (R&D Systems) for 72 hours. Cells were harvested using Accutase and seeded in 96-well conical bottom plates. Cells were blocked with Heat Inactived Fetal Bovine Serum (Gibco) for 30 minutes at 4° C. Cells were then incubated with anti-al I antibodies at the doses described in each figure for 30 minutes at 4° C. A human anti-al I antibody (Creative BioLabs) was included as a positive control as well as the appropriate IgG isotype negative controls. Cells were washed twice and incubated with PE conjugated secondary antibodies specific to the IgG class of the anti-α11 antibodies being tested for 30 minutes at 4° C. Cells were washed twice and fixed in 1% PF A for 30 minutes. Cells were acquired on a FACS Verse […]. Data were analyzed by gating on single cells and determining the geometric Mean Fluorescence Intensity (gMFI) in the PE channel for each sample.

| EC50 [nM] | Molecule |
| --- | --- |
| 2.87 | B1 |
| 4.6 | B2 |
| 2.4 | B3 |

target: T1, CHO-hu α11; test: Cell adhesion inhibition on type I collagen (xCelligence); assay type: cell-based; conditions: Table 11, 1994-01-C7 variants, FIG. 4C; read-out: Inhibition of Cell Adhesion IC50
Procedure: 0.6×10^6 cells/mL were incubated with each antibody at a range of concentrations for 20 minutes at 37° C. E-Plate VIEW 96 PET plate coated with 100 ng/ml type I collagen or PBS overnight at room temperature was blocked in 3% BSA for 1 hour at room temperature. After washing the plate with PBS, cell and antibody mixture was added to the wells and the plate was places into an xCelligence machine. Cell adhesion was recorded over 6 hours. The time point of maximum cell adhesion was used for comparison relative to control.

| IC50 [nM] | Molecule |
| --- | --- |
| 3 | B1 |
| 4.2 | B2 |
| 3.5 | B3 |

same assay, conditions: Table 12, 16E10 variants, FIG. 5B; read-out: CHO-α11 Adhesion Inhibition IC50

| IC50 [nM] | Molecule |
| --- | --- |
| 0.5 | B14 |
| 0.5 | B15 |
| 0.5 | B16 |
| 0.5 | B17 |
| 0.5 | B18 |
| 0.5 | B19 |
| 0.7 | B20 |
| 0.7 | B21 |
| 0.4 | B22 |
